# Values of other authors in patent US20110300070A1, “BIOMOLECULE COMPLEXES AS CONTRAST AGENTS IN POSITRON EMISSION TOMOGRAPHY (PET) BASED METHODS FOR THE ASSESSMENT OF ORGAN FUNCTION” (priority 2008, published 2011).
# B1: cystatin C: cysteine protease inhibitor, about 120 amino acids, about 13 kD (protein, UniProt P01034 27-146, looked up)
# Cystatin-C: SSPGKPPRLVGGPMDASVEEEGVRRALDFAVGEYNKASNDMYHSRALQVVRARKQIVAGVNYFLDVELGRTTCTKTQPNLDNCPFHDQPHLKRKAFCSFQIYAVPWQGTMTLSKSTCQDA
# System: proximal tubular cells
# Conditions: in vivo
molecule,measurement,value
"cytochrome C: heme protein, about 100 amino acids, about 12 kD",time window where the filtered amount of the tracer is still quantitatively retained in the proximal tubular cells,about 5 minutes
B1,optimal clearance period,less than 5 minutes
same,time window where the filtered amount of the tracer is still quantitatively retained in the proximal tubular cells,about 5 minutes
